Legend:
Test in all cases: purified protein
Nc1ccccc1C(=O)O [1] = type: biochemical, Juglans regia; details: 1 mM PR-PPi, 45 mM imidazole HCl pH 7.4, 30 °C, anthranilate 0-0.75 mM
Nc1c(O)cccc1C(=O)O [2] = tested on: T1, Nc1c(O)cccc1C(=O)O; type: biochemical, Juglans regia; details: 1 mM PR-PPi, 45 mM imidazole HCl pH 7.4, 30 °C, 3-HAA 0-0.5 mM
T1 construct: codon-optimized gene in pET28a, His-tagged, E. coli BL21 (DE3), Ni-NTA

Nc1ccccc1C(=O)O [3] = tested on: T2, Nc1ccccc1C(=O)O; type: biochemical, Arabidopsis thaliana; details: 1 mM PR-PPi, 45 mM imidazole HCl pH 7.4, 30 °C, anthranilate 0-0.75 mM
T2 construct: codon-optimized gene in pET28a, His-tagged, E. coli BL21 (DE3), Ni-NTA

Nc1c(O)cccc1C(=O)O [4] = tested on: T1, Nc1c(O)cccc1C(=O)O; type: biochemical, Arabidopsis thaliana; details: 1 mM PR-PPi, 45 mM imidazole HCl pH 7.4, 30 °C, 3-HAA 0-0.5 mM
Nc1ccccc1C(=O)O [5] = type: biochemical, Physcomitrium patens; details: 1 mM PR-PPi, 45 mM imidazole HCl pH 7.4, 30 °C, anthranilate 0-0.75 mM
Nc1ccccc1C(=O)O [6] = tested on: T2, Nc1ccccc1C(=O)O; type: biochemical, Selaginella moellendorffii; details: 1 mM PR-PPi, 45 mM imidazole HCl pH 7.4, 30 °C, anthranilate 0-0.75 mM
Nc1c(O)cccc1C(=O)O [7] = tested on: T1, Nc1c(O)cccc1C(=O)O; type: biochemical, Selaginella moellendorffii; details: 1 mM PR-PPi, 45 mM imidazole HCl pH 7.4, 30 °C, 3-HAA 0-0.5 mM

Substance JrPAT1 (Juglans regia) has a Km (Nc1ccccc1C(=O)O [1]) of 38.7 ± 3.5 µM, a kcat (Nc1ccccc1C(=O)O [1]) of 0.055 ± 0.00167 s⁻¹ and a kcat/Km (Nc1ccccc1C(=O)O [1]) of 1420 M⁻¹ s⁻¹. It also gave a Km (Nc1c(O)cccc1C(=O)O [2]) of 28.23 ± 4.2 µM, a kcat (Nc1c(O)cccc1C(=O)O [2]) of 0.0483 ± 0.00167 s⁻¹ and a kcat/Km (Nc1c(O)cccc1C(=O)O [2]) of 1690 M⁻¹ s⁻¹.
In the case of AtPAT1 (Arabidopsis thaliana), the Km (Nc1ccccc1C(=O)O [3]) is reported as 20.6 ± 2.0 µM, the kcat (Nc1ccccc1C(=O)O [3]) is reported as 0.132 ± 0.00167 s⁻¹ and the kcat/Km (Nc1ccccc1C(=O)O [3]) is reported as 6360 M⁻¹ s⁻¹. It also gave a Km (Nc1c(O)cccc1C(=O)O [4]) of 19.63 ± 2.3 µM, a kcat (Nc1c(O)cccc1C(=O)O [4]) of 0.0483 ± 0.00117 s⁻¹ and a kcat/Km (Nc1c(O)cccc1C(=O)O [4]) of 2470 M⁻¹ s⁻¹.
Substance PpPAT1 (Physcomitrium patens) has a Km (Nc1ccccc1C(=O)O [5]) of 31.8 ± 4.4 µM, a kcat (Nc1ccccc1C(=O)O [5]) of 0.0567 ± 0.00167 s⁻¹ and a kcat/Km (Nc1ccccc1C(=O)O [5]) of 1790 M⁻¹ s⁻¹.
In the case of SmPAT1 (Selaginella moellendorffii), the Km (Nc1ccccc1C(=O)O [6]) is reported as 189 ± 35 µM, the kcat (Nc1ccccc1C(=O)O [6]) is reported as 0.085 ± 0.005 s⁻¹ and the kcat/Km (Nc1ccccc1C(=O)O [6]) is reported as 450 M⁻¹ s⁻¹. For the same substance, the Km (Nc1c(O)cccc1C(=O)O [7]) was 22.66 ± 1.5 µM, the kcat (Nc1c(O)cccc1C(=O)O [7]) was 0.0533 ± 0.000833 s⁻¹ and the kcat/Km (Nc1c(O)cccc1C(=O)O [7]) was 2360 M⁻¹ s⁻¹.

Reference: PMC10520873, “Biochemical investigation of the tryptophan biosynthetic enzyme anthranilate phosphoribosyltransferase in plants” (The Journal of Biological Chemistry, 2023)
